Measured values published in article PMC3950521 (mBio, 2014).

Legend:
Test in all cases: SAXS
[1] = biological target: choline-binding domain of wt-LytA (LytA^CBD) (Streptococcus pneumoniae TIGR4)
[2] = biological target: full-length prophage LytA (prophage of Streptococcus pneumoniae Hungary 19A-6)
SAXS = biological target: the molecule itself

| Molecule | stoichiometry N (SAXS) | further results |
| --- | --- | --- |
| choline-binding domain of wt-LytA (LytA^CBD) (domain or fragment) | – | stoichiometry N [1]: 2 |
| full-length prophage LytA (enzyme) | – | stoichiometry N [2]: 2 |
| full-length wild-type LytA (N-acetylmuramoyl-L-alanine amidase, major autolysin of Streptococcus pneumoniae) (enzyme, Streptococcus pneumoniae TIGR4, UniProt P06653 1-318, looked up) MEINVSKLRTDLPQVGVQPYRQVHAHSTGNPHSTVQNEADYHWRKDPELGFFSHIVGNGCIMQVGPVDNGAWDVGGGWNAETYAAVELIESHSTKEEFMTDYRLYIELLRNLADEAGLPKTLDTGSLAGIKTHEYCTNNQPNNHSDHVDPYPYLAKWGISREQFKHDIENGLTIETGWQKNDTGYWYVHSDGSYPKDKFEKINGTWYYFDSSGYMLADRWRKHTDGNWYWFDNSGEMATGWKKIADKWYYFNEEGAMKTGWVKYKDTWYYLDAKEGAMVSNAFIQSADGTGWYYLKPDGTLADKPEFTVEPDGLITVK | 2 | – |
| recombinant full-length His-tagged LytA, wt-LytA(N-His6) (enzyme, Streptococcus pneumoniae TIGR4, UniProt P06653 1-318, looked up) MEINVSKLRTDLPQVGVQPYRQVHAHSTGNPHSTVQNEADYHWRKDPELGFFSHIVGNGCIMQVGPVDNGAWDVGGGWNAETYAAVELIESHSTKEEFMTDYRLYIELLRNLADEAGLPKTLDTGSLAGIKTHEYCTNNQPNNHSDHVDPYPYLAKWGISREQFKHDIENGLTIETGWQKNDTGYWYVHSDGSYPKDKFEKINGTWYYFDSSGYMLADRWRKHTDGNWYWFDNSGEMATGWKKIADKWYYFNEEGAMKTGWVKYKDTWYYLDAKEGAMVSNAFIQSADGTGWYYLKPDGTLADKPEFTVEPDGLITVK | 2 | – |
